Assays:
[1] = target: T1, G89A; test: flow cytometry, CHO-K1; sub-column 2 of 2
T1 construct: also called hCD27 G89A
T1 receptor: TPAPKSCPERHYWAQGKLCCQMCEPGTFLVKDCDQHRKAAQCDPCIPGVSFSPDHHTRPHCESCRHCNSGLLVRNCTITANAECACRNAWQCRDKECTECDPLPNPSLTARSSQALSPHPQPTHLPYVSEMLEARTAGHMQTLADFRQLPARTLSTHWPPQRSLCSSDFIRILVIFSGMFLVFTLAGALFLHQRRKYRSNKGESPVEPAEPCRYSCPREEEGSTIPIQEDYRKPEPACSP

[2] = target: T2, V30A; test: flow cytometry, CHO-K1; sub-column 2 of 2
T2 construct: also called hCD27 V30A
T2 receptor: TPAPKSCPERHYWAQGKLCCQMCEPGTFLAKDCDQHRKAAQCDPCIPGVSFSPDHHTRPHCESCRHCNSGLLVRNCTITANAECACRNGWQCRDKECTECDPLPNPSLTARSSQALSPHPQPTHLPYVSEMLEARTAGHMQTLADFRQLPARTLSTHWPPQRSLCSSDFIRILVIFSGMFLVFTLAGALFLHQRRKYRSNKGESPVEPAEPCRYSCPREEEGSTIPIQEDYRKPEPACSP

[3] = target: T3, K38A; test: flow cytometry, CHO-K1; sub-column 2 of 2
T3 construct: also called hCD27 K38A
T3 receptor: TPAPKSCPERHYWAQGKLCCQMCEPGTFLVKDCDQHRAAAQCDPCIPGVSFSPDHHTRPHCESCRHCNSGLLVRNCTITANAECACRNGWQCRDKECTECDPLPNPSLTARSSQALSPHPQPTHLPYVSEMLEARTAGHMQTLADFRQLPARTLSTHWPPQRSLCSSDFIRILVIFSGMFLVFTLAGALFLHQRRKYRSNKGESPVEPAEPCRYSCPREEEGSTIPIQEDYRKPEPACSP

[4] = target: T4, N88A; test: flow cytometry, CHO-K1; sub-column 2 of 2
T4 construct: also called hCD27 N88A
T4 receptor: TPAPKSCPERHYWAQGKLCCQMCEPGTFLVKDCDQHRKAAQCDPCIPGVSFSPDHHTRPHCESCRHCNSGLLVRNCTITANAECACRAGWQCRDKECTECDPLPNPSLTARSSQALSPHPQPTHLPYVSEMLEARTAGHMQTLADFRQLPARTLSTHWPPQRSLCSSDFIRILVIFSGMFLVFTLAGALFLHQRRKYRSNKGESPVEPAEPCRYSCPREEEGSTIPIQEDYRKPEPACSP

[5] = target: T2, V30A; test: flow cytometry, CHO-K1; sub-column 1 of 2
[6] = target: T5, K31A; test: flow cytometry, CHO-K1; sub-column 1 of 2
T5 construct: also called hCD27 K31A
T5 receptor: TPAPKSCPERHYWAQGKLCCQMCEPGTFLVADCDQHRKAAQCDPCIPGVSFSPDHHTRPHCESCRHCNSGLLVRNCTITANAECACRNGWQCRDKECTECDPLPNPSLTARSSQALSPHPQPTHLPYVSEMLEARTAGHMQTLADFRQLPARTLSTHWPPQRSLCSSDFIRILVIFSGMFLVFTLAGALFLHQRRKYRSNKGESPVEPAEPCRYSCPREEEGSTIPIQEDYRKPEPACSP

[7] = target: T6, R10A; test: flow cytometry, CHO-K1; sub-column 1 of 2
T6 construct: also called hCD27 R10A
T6 receptor: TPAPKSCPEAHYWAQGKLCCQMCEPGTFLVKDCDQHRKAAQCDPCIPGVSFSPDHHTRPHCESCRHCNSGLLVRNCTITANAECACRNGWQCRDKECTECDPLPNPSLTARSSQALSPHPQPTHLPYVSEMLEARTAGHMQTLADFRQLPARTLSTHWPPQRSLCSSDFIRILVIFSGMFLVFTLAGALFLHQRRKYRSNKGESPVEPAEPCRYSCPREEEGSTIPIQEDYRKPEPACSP

[8] = target: T7, S63A; test: flow cytometry, CHO-K1; sub-column 1 of 2
T7 construct: also called hCD27 S63A
T7 receptor: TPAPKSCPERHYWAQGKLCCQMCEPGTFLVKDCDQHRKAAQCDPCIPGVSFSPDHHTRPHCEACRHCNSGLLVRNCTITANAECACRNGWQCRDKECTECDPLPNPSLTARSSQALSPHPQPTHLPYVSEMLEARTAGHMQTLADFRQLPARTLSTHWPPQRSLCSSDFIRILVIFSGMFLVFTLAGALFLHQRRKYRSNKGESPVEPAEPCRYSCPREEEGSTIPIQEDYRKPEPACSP

[9] = target: T8, K17A; test: flow cytometry, CHO-K1; sub-column 1 of 2
T8 construct: also called hCD27 K17A
T8 receptor: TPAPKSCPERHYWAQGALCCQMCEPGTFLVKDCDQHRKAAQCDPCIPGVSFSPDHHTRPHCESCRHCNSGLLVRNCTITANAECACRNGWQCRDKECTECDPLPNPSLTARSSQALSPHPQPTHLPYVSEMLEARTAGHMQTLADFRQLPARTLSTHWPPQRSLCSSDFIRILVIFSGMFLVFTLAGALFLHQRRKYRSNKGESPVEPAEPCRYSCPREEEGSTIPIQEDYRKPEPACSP

[10] = target: T9, W13A; test: flow cytometry, CHO-K1; sub-column 1 of 2
T9 construct: also called hCD27 W13A
T9 receptor: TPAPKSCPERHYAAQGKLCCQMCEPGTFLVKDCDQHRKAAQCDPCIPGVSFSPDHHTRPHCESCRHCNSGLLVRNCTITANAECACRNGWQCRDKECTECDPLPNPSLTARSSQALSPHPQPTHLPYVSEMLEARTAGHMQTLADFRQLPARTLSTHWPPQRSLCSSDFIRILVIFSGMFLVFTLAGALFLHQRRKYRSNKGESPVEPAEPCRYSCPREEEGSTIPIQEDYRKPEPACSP

[11] = target: T10, R37A; test: flow cytometry, CHO-K1; sub-column 1 of 2
T10 construct: also called hCD27 R37A
T10 receptor: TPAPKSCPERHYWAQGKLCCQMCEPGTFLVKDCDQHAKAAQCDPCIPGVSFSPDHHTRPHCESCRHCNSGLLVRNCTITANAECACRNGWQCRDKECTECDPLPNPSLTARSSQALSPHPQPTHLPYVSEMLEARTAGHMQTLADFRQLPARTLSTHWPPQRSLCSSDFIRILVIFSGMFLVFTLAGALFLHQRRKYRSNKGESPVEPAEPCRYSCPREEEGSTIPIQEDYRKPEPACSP

Row | Molecule | % of WT hCD27 binding (geo mean FITC) [1] [%] | % of WT hCD27 binding (geo mean FITC) [2] [%] | % of WT hCD27 binding (geo mean FITC) [3] [%] | % of WT hCD27 binding (geo mean FITC) [4] [%] | % of WT hCD27 binding (geo mean FITC) [5] [%] | % of WT hCD27 binding (geo mean FITC) [6] [%] | % of WT hCD27 binding (geo mean FITC) [7] [%] | % of WT hCD27 binding (geo mean FITC) [8] [%] | % of WT hCD27 binding (geo mean FITC) [9] [%] | % of WT hCD27 binding (geo mean FITC) [10] [%] | % of WT hCD27 binding (geo mean FITC) [11] [%]
1 | 1A4 (mouse IgG1) (antibody) | 81.8 | 102 | 97.7 | 116 | 161 | 194 | 107 | 158 | 32.4 | 89.1 | 115
2 | 9F4 (mouse IgG2a) (antibody) | 77.5 | 95.6 | 31.6 | 104 | 166 | 207 | 104 | 153 | 98 | 90.7 | 35
3 | Antibody hCD27.131A (mouse parental 131A) (antibody, V domains shown, mouse IgG1; also called mouse hCD27.131A) VH: QIQLVQSGPELKKPGETVKISCKASGYTFTNYGMNWVKQAPGKGLKWMGWINTNTGEPTYAEEFKGRFAFSLETSATTAYLQINNLKNEDTATYFCAREGDAMDYWGQGTSVTVSS VL: QIVLTQSPAIMSASPGEKVTMTCSASSSVSYMHWYQQKSGTSPKRWIYDTSKLASGVPARFSGSGSGTSYSLTISSMEAEDAATYYCQQWNSYPFTFGSGTKLEIK | 82.9 | 94 | 11.8 | 124 | 170 | 203 | 103 | 162 | 103 | 86 | 50.3

Source: patent US20190300618A1 (Merck Sharp & Dohme, published 2019)
